This note sets out measurements from doi:10.1101/2025.04.30.25326597.

In the test the target is BORCS5 L128Vfs*86, C-terminally GFP-tagged (human) (UniProt Q969J3). The experiment in a line: co-IP; GFP-Trap agarose precipitation of C-terminally GFP-tagged BORCS5 constructs from lysates of transfected cells 24 h after transfection (10 mM Tris-Cl pH 7.5, 150 mM NaCl, 0.5 mM EDTA, 1% Triton X-100, 10% glycerol), 2 h at 4°C, five washes; endogenous SNAPIN and BORCS7 detected by immunoblotting; GFP alone as control. (In western blotting, separated proteins are transferred to a membrane and probed.)

B1: BORCS7 (natural protein)
chain: MMATGTPESQARFGQSVKGLLTEKVTTCGTDVIALTKQVLKGSRSSELLGQAARNMVLQEDAILHSEDSLRKMAIITTHLQYQQEAIQKNVEQSSDLQDQLNHLLK
Molecule B1 gave a percent less co-immunoprecipitated than with WT of 30%.
